This note sets out measurements from publication PMC8892091.

The target in data set [1] is T1, MBP-ALKBH6 WT (Homo sapiens, UniProt Q3KRA9 1-238). Description: EMSA. On the technique in general: A gel shift assay detects complexes by their altered migration in electrophoresis.
Data set [2] has as its target T2, ALKBH6 WT (Homo sapiens, UniProt Q3KRA9 1-238). Description: MST.
The target of data set [3] is T1, MBP-ALKBH6 WT. Description: competition.
For a further data set, the target named is MBP-ALKBH6 R225A/R228A (Homo sapiens, UniProt Q3KRA9 1-238, R225A;R228A). The experiment in a line: EMSA.
For another data set, the target named is ALKBH6ΔFlip3 (Homo sapiens, UniProt Q3KRA9 1-238, del139-158). The experiment in a line: MST.
Data set [4] deals with T2, ALKBH6 WT. Description: MST. The source holds these as a separate data set.
The next data set addresses MBP-ALKBH6ΔFlip3 (Homo sapiens, UniProt Q3KRA9 1-238, del139-158). Description: EMSA.
In data set [5] the target is T2, ALKBH6 WT. The experiment in a line: MST. This is another data set of the same source.

Changes are numbered by the printed parent chain. Where two headings read alike, the source gives them in different places.

For AAAAAAAAAAAAAAAAAAAAAAAAAAAAAA (ssRNA) [poly(A) 30 nt], the binding result in the data set with MBP-ALKBH6 WT [1] and in the data set with ALKBH6 WT [2] was “binds” throughout.
GGATCAACAGTGCACAGTT (ssDNA) [ssDNA1 (unlabelled)]: the binding result with MBP-ALKBH6 WT [3] is “binds”.
Regarding GGATCAACAGTGCACAGTT (ssDNA) [ssDNA1 (FAM)], the binding result with MBP-ALKBH6 WT [1] and in the data set with MBP-ALKBH6 R225A/R228A was “binds” throughout.
As to GATCCAGTGATCCAGT (ssDNA) [ssDNA3 (FAM)], the binding result in the data set with ALKBH6ΔFlip3 and with ALKBH6 WT [4] was “binds” throughout.

B1: dsDNA1 (dsDNA)
DNA 1: AACTTCGTGCAGGCATGGGATCTTGTCTACT
DNA 2: AGTAGACAAGATCCCATGCCTGCACGAAGTT
Regarding B1, the binding result with MBP-ALKBH6 WT [1] was “no binding”; in the data set with MBP-ALKBH6ΔFlip3 it was “binds”.

B2: Bulge DNA1 (dsDNA)
DNA 1: B1 DNA 1
DNA 2: AGTAGA
DNA 3: CATGCCTGCACGAAGTT
Regarding B2, the binding result in the data set with ALKBH6 WT [5] was “binds”.

B3: Bubble DNA1 (dsDNA)
DNA 1: B1 DNA 1
DNA 2: B1 DNA 2 with A11C, T12G, C13A
In the case of B3, the binding result with ALKBH6 WT [5] is reported as “binds”.

B4: Bulge DNA2 (dsDNA)
DNA 1: B1 DNA 1
DNA 2: AGTAGACAACATGCCTGCACGAAGTT
Turning to B4, in the data set with ALKBH6 WT [5], the binding result is “binds”.
